The results in this text go back to patent publication US20200369773A1 (CELDARA MEDICAL, published 2020).

B1: scFvP3G5VHVL-mCD28H-mCD28TM-mCD28CS-mCD3zICS (anti-Fn14 CAR) (receptor)
chain: QVQLQQSGPEVVRPGVSVKISCKGSGYTFTDYGIHWVKQSHAKSLEWIGVISTYNGYTNYNQKFKGKATMTVDKSSSTAYMELARLTSEDSAIYYCARAYYGNLYYAMDYWGQGTSVTVSSGGGGSGGGGSGGGGSDIVLTQSPASLAVSLGQRATISCRANKSVSTSSYSYMHWYQQKPGQPPKLLIKYASNLESGVPARFSGSGSGTDFILNIHPVEEEDAATYYCQHSRELPFTFGSGTKLEIKIKEKHLCHTQSSPKLFWALVVVAGVLFCYGLLVTVALCVIWTNSRRNRLLQSDYMNMTPRRPGLTRKPYQPYAPARDFAAYRPRAKFSRSAETAANLQDPNQLYNELNLGRREEYDVLEKKRARDPEMGGKQQRRRNPQEGVYNALQKDKMAEAYSEIGTKGERRRGKGHDGLYQGLSTATKDTYDALHMQTLAPR
notes: Chimeric antigen receptor on transduced mouse T cells
B2: mouse truncated CD19 (mtrCD19), mock construct without CAR (other)
chain: RPQKSLLVEVEEGGNVVLPCLPDSSPVSSEKLAWYRGNQSTPFLELSPGSPGLGLHVGSLGILLVIVNVSDHMGGFYLCQKRPPFKDIWQPAWTVNVEDSGEMFRWNASDVRDLDCDLRNRSSGSHRSTSGSQLYVWAKDHPKVWGTKPVCAPRGSSLNQSLINQDLTVAPGSTLWLSCGVPPVPVAKGSISWTHVHPRRPNVSLLSLSLGGEHPVREMWVWGSLLLLPQATALDEGTYYCLRGNLTIERHVKVIARSAVWLWLLRTGGWIVPVVTLVYVIFCMVSLVAFLYCQRAFILRRKRKRMT
notes: Negative control: mouse T cells transduced with a vector that encodes only mtrCD19 and no CAR; also called mt19; mock transduced cells
B3: scFvP3G5VLVH-mCD28H-mCD28TM-mCD28CS-mCD3zICS (anti-Fn14 CAR) (receptor)
chain: DIVLTQSPASLAVSLGQRATISCRANKSVSTSSYSYMHWYQQKPGQPPKLLIKYASNLESGVPARFSGSGSGTDFILNIHPVEEEDAATYYCQHSRELPFTFGSGTKLEIKGGGGSGGGGSGGGGSQVQLQQSGPEVVRPGVSVKISCKGSGYTFTDYGIHWVKQSHAKSLEWIGVISTYNGYTNYNQKFKGKATMTVDKSSSTAYMELARLTSEDSAIYYCARAYYGNLYYAMDYWGQGTSVTVSSIKEKHLCHTQSSPKLFWALVVVAGVLFCYGLLVTVALCVIWTNSRRNRLLQSDYMNMTPRRPGLTRKPYQPYAPARDFAAYRPRAKFSRSAETAANLQDPNQLYNELNLGRREEYDVLEKKRARDPEMGGKQQRRRNPQEGVYNALQKDKMAEAYSEIGTKGERRRGKGHDGLYQGLSTATKDTYDALHMQTLAPR
notes: as for B1

The assay concerns the target T1, FITC-recombinant mouse Fn14:human Fc (ENZO ALX-522-036F) (mouse, UniProt Q9CR75 28-80, FITC label (site not stated)).
T1 construct: Bought reagent; also called FITC-recombinant Fn14; recombinant Fn14; not shown: human Fc
T1 sequence: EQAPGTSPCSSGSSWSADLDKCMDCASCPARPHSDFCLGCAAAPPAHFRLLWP
In words: flow cytometry; transduced mouse T cells stained with FITC-recombinant mouse Fn14:human Fc. As to the method: Cell samples that were subjected to transduction with pFB vector containing the anti-Fn14 CAR and T2A+mtrCD19 (4A8H_mt19, 4A8L_mt19, 3G5H_mt19, 3G5L_mt19) construct or just the T2A+mtrCD19 (mt19) construct (from Day 8 of Example 1) were harvested, and 0.25×10⁶ cells in 100 μL of FACS buffer were placed in a 96 well round bottom plate. The plate was spun at 500 ref for 1 min at room temperature, and the supernatant was removed. Cells in each well were resuspended in 25 μL of Blocking buffer and incubated on ice for 10 min.
Cells were then added with 150 μL of FACS buffer and spun at 500 ref for 2 min, and the supernatant was removed. This washing step was repeated once more with 200 μL of FACS buffer.
For the same day FACS analysis, cells in each well were resuspended in 250 μL of FACS buffer and analyzed on flow cytometer. For the next day analysis, cells were diluted in 250 μL of Fixation buffer until analyzed the following day. Cells were stored on ice or 4° C., protected from light, until run on FACS machine.
Background: A flow cytometer gives signals particle by particle.
As to B1, the “% anti-Fn14 CAR^+ of CD3^+ cells (staining with FITC-recombinant Fn14)” value (“% anti-Fn14 CAR^+ of CD3^+ cells” for short) was found to be 10.8%.

In the case of B2, the “% anti-Fn14 CAR^+ of CD3^+ cells” value came to 1.6%.

On to B3, for which the “% anti-Fn14 CAR^+ of CD3^+ cells” value was found to be 11.4%.
